According to patent publication US20110305703A1, “ISOLATED VEGF-C AND VEGF-D PEPTIDES AND USES THEREOF” (Vegenics Pty Limited, priority 2008, published 2011):
Residue numbers refer to the chain shown, from its start. In names and notes the source's numbering stands. Entries after “also recorded” stand apart in the source; their conditions may differ. No end group written: not given here. *: point of attachment. Biotin = O=C1N[C@H]2[C@H](CS[C@H]2CCCCC(=O)*)N1

B1: E148D: VEGF-DΔNΔC variant with mutation E148D (protein)
chain: DYKDDDDKFYDIETLKVIDEEWQRTQCSPRETCVEVASELGKSTNTFFKPPCVNVFRCGGCCNDESLICMNTSTSYISKQLFEISVPLTSVPELVPVKVANHTGCKCLPTAPRHPYS
B2: S150T: VEGF-DΔNΔC variant with mutation S150T (protein)
chain: B1 chain with D64E, S66T
B3: E148S and S150G double mutation: VEGF-DΔNΔC variant containing both E148S and S150G (VEGF-C residues) (protein)
chain: B1 chain with D64S, S66G
B4: N147Q: VEGF-DΔNΔC variant with mutation N147Q (protein)
chain: B1 chain with N63Q, D64E
B5: S150G: VEGF-DΔNΔC variant with mutation S150G (protein)
chain: B1 chain with D64E, S66G
B6: E149D: VEGF-DΔNΔC variant with mutation E149D (protein)
chain: B1 chain with D64E, E65D
B7: L151V: VEGF-DΔNΔC variant with mutation L151V (protein)
chain: B1 chain with D64E, L67V
B8: E148S: VEGF-DΔNΔC variant with mutation E148S (protein)
chain: B1 chain with D64S
B9: S150G/L151V: VEGF-DΔNΔC variant with double mutation S150G/L151V (mouse residues) (protein)
chain: MYREWVVVNVFMMLYVQLVQGSSNEHGPVKRSSQSTLERSEQQIRAASSLEELLRITHSEDWKLWRCRLRLKSFTSMDSRSASHRSTRFAATFYDIETLKVIDEEWQRTQCSPRETCVEVASELGKSTNTFFKPPCVNVFRCGGCCNEEGVICMNTSTSYISKQLFEISVPLTSVPELVPVKVANHTGCKCLPTAPRHPYSIIRRSIQIPEEDRCSHSKKLCPIDMLWDSNKCKCVLQEENPLAGTEDHSHLQEPALCGPHMMFDEDRCECVCKTPCPKDLIQHPKNCSCFECKESLETCCQKHKLFHPDTCSCEDRCPFHTRPCASGKTACAKHCRFPKEKRAAQGPHSRKNP

These molecules were tested on VEGF-D neutralizing monoclonal antibody mAb 4A5 (VDnmAb) (assay: ELISA of biotinylated synthetic peptides on streptavidin plates for VDnmAb binding). Conditions: 3rd peptide library; 10 pmol peptide; VDnmAb 2 μg/ml; signal more than two-fold over background considered positive.
Text: Peptides. A series of synthetic 15-mer peptides (peptides 1 to 35, SEQ ID NOs: 4 to 38 in FIG. 4B, which overlap each other by 12 amino acids) were synthesized (Mimotopes Pty Ltd, Melbourne, Australia). The peptides encompassed the VHD of human VEGF-D (SEQ ID NO: 3, FIG. 4A). Peptide 36 (SEQ ID NO: 39) represented an artificial sequence including a FLAG tag as a positive control for a commercial anti-FLAG mAb (M2; Sigma) that was used as control for non-specific binding to peptides 1 to 35 (SEQ ID NOs: 4 to 38). Biotin was included at the N-terminal of each peptide during synthesis, except that peptide 1 (SEQ ID NO: 4, representing the N-terminal of the VHD) has biotin at the C-terminal. The four-amino acid linker “SGSG” was introduced between the N-terminal of each peptide sequence and biotin to provide more flexibility to peptides after immobilization on streptavidin plates, except peptide 1 (SEQ ID NO: 4) that included the C-terminal linker “GSG”.
ELISA. Reacti-Bind streptavidin high-binding-capacity coated plates (Pierce) were coated with 10 pmol of each peptide in PBS, blocked with 5% milk in PBS-0.1% Tween 20, and incubated with 100 μl of VEGF-D neutralizing monoclonal antibody mAb 4A5 (referred to herein as VDnmAb) or M2 at 2 μg/ml for 1 h at room temperature. Bound mAb was detected with goat anti-mouse IgG coupled with HRP. ABTS was used as the substrate, and the absorbance was read at 405 nm in a multiwell plate reader.
In this 2nd peptide library, biotin was included at the N-terminal of each peptide, and the four-amino acid linker “SGSG” was introduced between each peptide sequence and the biotin residue to provide more flexibility to peptides after immobilization on streptavidin plates. ELISA-based analysis of the 2nd peptide library was carried out as for the 1st peptide library.
Peptide 67 (SEQ ID NO: 141, the same as peptide 36, SEQ ID NO: 39 from the 1st library) and peptide 68 (SEQ ID NO: 142), both containing the FLAG tag, were used as controls. In this 3rd peptide library, biotin was included at the N-terminal of each peptide except peptides 6, 12 and 14 (SEQ ID NOs: 80, 86 and 88) which have C-terminal biotin residues. To provide more flexibility to peptides after immobilization on streptavidin plates, an amino acid linker was introduced between biotin residues and the peptide sequence: “SGSG” for N-terminal biotin; “SGS” for C-terminal biotin. ELISA-based analysis of the 3rd peptide library was carried out as for the 1st peptide library, described in Example 1.

| VDnmAb binding to peptide (ELISA signal, absorbance at 405 nm) | Molecule |
| --- | --- |
| loss, but not complete loss, of binding | peptide 58 (SEQ ID NO: 132): 3rd library: deletion of most of the cysteine and glycine residues at positions 142 to 146 (Biotin-SGSGNVFNEESL) |
| loss, but not complete loss, of binding | peptide 59 (SEQ ID NO: 133): 3rd library: simultaneous changes of most of residues 142 to 146 to alanine (SGSGNVFAAGAAANEESL) |

What follows are molecules tested on VDnmAb (assay: Western blot of conditioned media containing VEGF-DΔNΔC variants probed with VDnmAb). Conditions: conditioned media of 293-F cells; in comparison to VEGF-DΔNΔC.
Format: binding
Text: Site-directed mutagenesis. DNA encoding VEGF-DΔNΔC, a form of mature human VEGF-D tagged at the N-terminus with the FLAG octapeptide (FIG. 11; SEQ ID NO: 145), was subjected to site-directed mutagenesis by PCR to generate VEGF-DΔNΔC variants. Mutations were introduced by amplification with the following primers: N147Q with 5'-[…] NO: 146) and 5'-[…] with 5'-[…] NO: 148) and 5'-[…] with 5'-[…] NO: 150) and 5'-[…] with 5'-[…] NO: 152) and 5'-[…] with 5'-[…] NO: 154) and 5'-[…] with 5'-[…] NO: 156) and 5'-[…] with 5'-[…] NO: 158) and 5'-[…] NO: 159) (FIG. 12). The desired mutations, as well as the absence of any unwanted mutations, in the resulting DNA fragments were confirmed by nucleotide sequencing. Expression of VEGF-DΔNΔC variants. Plasmids containing DNA encoding VEGF-DΔNΔC or its variants were used for transient transfection of 293-F cells with the FreeStyle MAX 293 Expression System according to manufacturer's instructions (Invitrogen). Cells expressing each variant were cultured in serum-free medium, and 30 ml of conditioned media was collected 7 days post-transfection and used for analysis. Western Blot Analysis. Conditioned media containing different variants of VEGF-DΔNΔC were resolved by SDS-PAGE, transferred to nitrocellulose membrane, probed with M2 anti-FLAG or VDnmAb antibodies labeled with IRDye 800CW according to manufacturer's instructions (LI-COR), and detected with an Odyssey Infrared Imaging System (LI-COR).

| Molecule | VDnmAb binding to VEGF-DΔNΔC variant in Western blot |
| --- | --- |
| B1 | complete loss of VDnmAb binding |
| B2 | significant decrease in the amount of VDnmAb bound |
| B3 | complete loss of VDnmAb binding |
| B4 | significant decrease in the amount of VDnmAb bound |
| B5 | significantly affected VDnmAb binding; also recorded: significantly affected, but did not eliminate, binding |
| B6 | dramatic decrease in the amount of VDnmAb bound |
| B7 | dramatic decrease in the amount of VDnmAb bound; also recorded: significantly affected VDnmAb binding |
| B8 | complete loss of VDnmAb binding |
| B9 | complete loss of VDnmAb binding |
